Results: patent publication US20260250651, “CAS12 PROTEINS AND USES THEREOF” (GUANGZHOU REFORGENE MEDICINE CO., LTD., published 2026)
Numbering of substitutions follows the chain as printed.

T1: Cas12i-69 (N295R,N260R,G705R)
T1 chain: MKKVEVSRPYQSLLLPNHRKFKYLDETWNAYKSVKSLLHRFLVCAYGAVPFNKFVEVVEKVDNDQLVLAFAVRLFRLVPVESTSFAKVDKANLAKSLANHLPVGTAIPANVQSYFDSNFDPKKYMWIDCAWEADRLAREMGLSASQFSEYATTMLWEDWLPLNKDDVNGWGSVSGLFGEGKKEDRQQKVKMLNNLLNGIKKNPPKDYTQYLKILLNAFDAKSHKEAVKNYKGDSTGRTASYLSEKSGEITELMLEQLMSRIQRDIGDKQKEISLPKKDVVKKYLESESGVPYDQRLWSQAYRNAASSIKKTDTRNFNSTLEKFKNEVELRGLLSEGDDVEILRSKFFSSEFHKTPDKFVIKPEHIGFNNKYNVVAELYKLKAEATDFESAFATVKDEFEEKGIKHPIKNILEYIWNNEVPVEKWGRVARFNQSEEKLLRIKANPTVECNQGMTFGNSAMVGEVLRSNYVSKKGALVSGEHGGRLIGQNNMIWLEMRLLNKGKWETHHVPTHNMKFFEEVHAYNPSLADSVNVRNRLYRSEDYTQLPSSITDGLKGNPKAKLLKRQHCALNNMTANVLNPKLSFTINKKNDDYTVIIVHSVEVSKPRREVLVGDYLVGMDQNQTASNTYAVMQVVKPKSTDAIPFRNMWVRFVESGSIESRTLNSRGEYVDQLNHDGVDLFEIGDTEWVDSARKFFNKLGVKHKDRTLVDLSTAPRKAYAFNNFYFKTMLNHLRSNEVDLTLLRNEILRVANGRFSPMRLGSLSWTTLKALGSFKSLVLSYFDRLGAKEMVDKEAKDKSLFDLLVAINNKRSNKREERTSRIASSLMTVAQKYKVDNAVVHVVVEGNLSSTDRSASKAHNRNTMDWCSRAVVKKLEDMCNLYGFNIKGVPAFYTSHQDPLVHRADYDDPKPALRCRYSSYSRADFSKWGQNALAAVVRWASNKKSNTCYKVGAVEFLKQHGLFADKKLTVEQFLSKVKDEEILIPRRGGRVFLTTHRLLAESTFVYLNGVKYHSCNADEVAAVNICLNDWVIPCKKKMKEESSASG

T2: Cas12i-30 (N295R,N260R)
T2 chain: T1 chain with R705G

B1: gRNA-TTR ; TTR target (ssRNA ; dsDNA)
RNA: AGAGAAUGUGUGCAUAGUCACACCAGUAAGAUUUGGUGUCUAU
DNA 1: CAGTAAGATTTGGTGTCTAT
DNA 2: ATAGACACCAAATCTTACTG
B2: gRNA-HBB ; HBB target (ssRNA ; dsDNA)
RNA: AGAGAAUGUGUGCAUAGUCACACUAUGCAGAAAUAUUGCUAUUGCCU
DNA 1: TATGCAGAAATATTGCTATTGCCT
DNA 2: AGGCAATAGCAATATTTCTGCATA

Columns and labels:
Cas12i-69 = target: T1, Cas12i-69; experiment: cell_activity; 293T indels; editing >15%
Method: (§1) Plating: The 293T cell line was plated when the confluence reached 70-80%, and the number of cells seeded in a 24-well plate was 5*10\hat{ }5 cells/well.
(§2) Transfection: After 12-14 hours of plating, transfection was performed. 100 μl of Opti-MEM, 1.5 μl of PEI (Yisheng Bio, Polyethylenimine Linear (PEI) MW25000), 250 ng of the mutant clone plasmid from Example 2, and 250 ng of gRNA plasmid for targeting endogenous genes were added to each well of a 24-well plate. The mixture was incubated at room temperature for 20 minutes and then added to 293T cells for transfection. After transfection overnight, the medium was replaced with fresh medium and cultured for the next period.
(§3) DNA extraction, PCR amplification, and Sanger sequencing: After culturing for 72 hours, cells were washed with PBS, and then 100 μl of cell lysis buffer (Viagen, DirectPCR® Lysis Reagent (Cell)) was added for lysis to obtain a lysate containing genomic DNA. The genomic DNA was amplified in the region near the target sequence, and the PCR product was sent to a sequencing company for Sanger sequencing.

Cas12i-30 = target: T2, Cas12i-30; experiment: cell_activity; 293T indels, reference; editing >10%
Method: as §1, §2, §3

Row | Binder | indel editing efficiency (Cas12i-69) | relative indel editing efficiency (Cas12i-69) | relative indel editing efficiency (Cas12i-30)
1 | B1 | 4.68 fold of wild type |  | 
2 | B2 |  | 1.58 fold of Cas12i-30 | 1 fold of Cas12i-30
